T1: PKC-ε (endogenous, human cell extracts) (human, UniProt Q02156 1-737)
T1 construct: Two bands on the blot, said to be alternate splicing variants; also called PKC-epsilon; PKC-ε Band 1
T1 sequence (looked up): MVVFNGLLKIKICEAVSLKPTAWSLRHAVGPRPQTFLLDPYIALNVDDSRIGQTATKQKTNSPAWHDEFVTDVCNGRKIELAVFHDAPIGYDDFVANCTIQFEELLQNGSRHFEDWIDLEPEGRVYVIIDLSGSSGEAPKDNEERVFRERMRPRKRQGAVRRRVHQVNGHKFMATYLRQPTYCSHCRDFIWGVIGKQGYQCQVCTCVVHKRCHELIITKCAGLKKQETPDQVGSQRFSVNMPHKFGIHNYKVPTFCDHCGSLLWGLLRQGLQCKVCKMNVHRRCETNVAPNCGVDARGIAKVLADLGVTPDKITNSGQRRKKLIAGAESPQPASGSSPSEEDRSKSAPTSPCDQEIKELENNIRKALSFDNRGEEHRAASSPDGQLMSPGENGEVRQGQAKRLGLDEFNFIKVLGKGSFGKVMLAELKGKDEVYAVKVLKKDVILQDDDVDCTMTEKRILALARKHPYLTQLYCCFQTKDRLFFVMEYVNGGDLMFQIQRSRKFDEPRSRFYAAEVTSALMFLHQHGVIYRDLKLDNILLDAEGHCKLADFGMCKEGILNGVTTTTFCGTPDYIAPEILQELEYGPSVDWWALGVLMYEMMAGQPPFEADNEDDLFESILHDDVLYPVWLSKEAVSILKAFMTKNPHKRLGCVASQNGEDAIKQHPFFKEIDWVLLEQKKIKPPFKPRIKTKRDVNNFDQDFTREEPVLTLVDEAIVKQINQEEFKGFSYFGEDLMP

T2: PKC-ε (purified isoform) (Homo sapiens (Human), UniProt Q02156 1-737)
T2 construct: also called PKC-epsilon; PKCepsilon
T2 sequence: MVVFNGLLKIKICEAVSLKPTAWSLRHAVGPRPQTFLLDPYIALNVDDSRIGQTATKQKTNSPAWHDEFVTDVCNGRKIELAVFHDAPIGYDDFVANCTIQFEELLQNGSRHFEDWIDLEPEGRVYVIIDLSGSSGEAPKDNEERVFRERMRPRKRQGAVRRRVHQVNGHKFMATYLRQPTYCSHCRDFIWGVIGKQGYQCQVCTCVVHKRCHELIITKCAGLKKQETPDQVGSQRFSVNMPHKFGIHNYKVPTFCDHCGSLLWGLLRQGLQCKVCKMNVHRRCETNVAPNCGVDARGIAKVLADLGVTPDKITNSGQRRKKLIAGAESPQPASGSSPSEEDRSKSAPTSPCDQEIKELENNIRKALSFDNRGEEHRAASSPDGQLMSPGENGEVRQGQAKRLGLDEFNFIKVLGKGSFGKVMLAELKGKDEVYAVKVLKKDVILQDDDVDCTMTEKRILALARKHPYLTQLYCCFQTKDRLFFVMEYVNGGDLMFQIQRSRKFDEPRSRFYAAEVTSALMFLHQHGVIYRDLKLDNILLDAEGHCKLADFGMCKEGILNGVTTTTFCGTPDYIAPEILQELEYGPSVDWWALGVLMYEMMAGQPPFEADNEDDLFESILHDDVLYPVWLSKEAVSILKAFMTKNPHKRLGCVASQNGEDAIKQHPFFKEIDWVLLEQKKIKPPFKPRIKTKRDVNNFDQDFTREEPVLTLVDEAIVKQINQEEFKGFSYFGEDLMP


How the values were obtained:
[1] = molecular target: T3, PKC-βII (purified isoform) (Homo sapiens (Human), UniProt P05771 2-621); test: competitive ELISA on purified PKC-βII vs anti-PKC-βII Ab; PRE 50 µM
T3 construct: also called PKC-beta II
Method: (§1) Greiner 96 well ELISA plates were coated with the appropriate PKC isoform diluted in PBSN (PBS with Calcium/Magnesium+0.05% Sodium azide w/w). 50 μL/well at 250 ng/mL was used. Control wells contained PBSN only. Plates were incubated overnight at 4° C.
(§2) The plates were washed 3 times with 200 μL of dH₂O per well, then 100 μL of blocking solution was added per well and the plate incubated for 1 h at 37° C. The washing steps with dH₂O were repeated and 50 μL of the appropriate PRE solution (PRE stock solution [20 mM in DMSO] diluted in PBSN) was added and the plate incubated for 1 h at room temperature.
(§3) 50 μL of 1:1000 dilution of Alkaline Phosphatase (AP) conjugated antibody (anti-rabbit for all except zeta, which was anti-goat) was then added and the plate incubated for 1 h at room temperature. Washing with dH₂O was then repeated. Finally, 100 μL of pNPP solution in pNPP buffer (2 mM MgCl₂, 100 mM Sodium bicarbonate in water, pH 9.8) was added to all wells and incubated for 8 minutes for α, βI, βII ε, and ζ, or for 15-20 mins for […] (until sufficient coloration is observed). The reaction was stopped by addition of Stop solution (2N NaOH) and the absorbance at 405 nm was read on a Galaxy Plate reader.

[2] = molecular target: T4, PKC-α (purified isoform) (Homo sapiens (Human), UniProt P17252 2-672); test: competitive ELISA on purified PKC-α vs anti-PKC-α Ab; PRE 200 µM
T4 construct: also called PKC-alpha; PKCalpha
Method: as §1
After incubation, 5 μL of 1.1:400 anti-PKC (isoform specific antibody) was added per well (to provide a final concentration of 1:4000). For PKC-epsilon, 1.1:800 dilution was used and for PKC-zeta a 1.1:100 dilution was used due to high and low binding affinity, respectively. The plates were then incubated 1 h at room temperature, followed by washing with dH₂O as described above.
as §3

[3] = molecular target: T1, PKC-ε (endogenous, human cell extracts); test: Protocol B blot competition, IMR-32 extract, competitor anti-PKC-ε Ab, Band 2; PRE 100 µg
Method: The ability of the peptides PRE 2 and PRE 3 (see Table 3) to interfere with the binding of a PKC-α-specific polyclonal antibody (Santa Cruz Biotechnology, Inc.) to PKC-α was determined using a modified version of the protocol outlined above in which the test peptide was added directly to the cell extract prior to electrophoresis at a concentration of either 5× or 15× the concentration of the protein applied to each well of the gel for the Western blots (20 μg).
Peptides PRE 2, PRE 3 and PRE 4 (see Table 3) were tested for their ability to interfere with the binding of isoform-specific polyclonal antibodies (Santa Cruz Biotechnology, Inc.) to PKC-ε using the general protocol described in Example 3. Two bands, representing alternate splicing variants of PKC-ε, were identified on the Western blot using this anti-PKC-ε antibody.

[4] = molecular target: T2, PKC-ε (purified isoform); test: competitive ELISA on purified PKC-ε vs anti-PKC-ε Ab; PRE 50 µM
Method: as §1, §2, §3

[5] = molecular target: T2, PKC-ε (purified isoform); test: competitive ELISA on purified PKC-ε vs anti-PKC-ε Ab; PRE 100 µM
Method: as §1, §2, §3

[6] = molecular target: T2, PKC-ε (purified isoform); test: competitive ELISA on purified PKC-ε vs anti-PKC-ε Ab; PRE 200 µM
Method: as §1, §2, §3

T3 sequence (P05771 other isoform, or with tags, fused parts or gaps limits assumed): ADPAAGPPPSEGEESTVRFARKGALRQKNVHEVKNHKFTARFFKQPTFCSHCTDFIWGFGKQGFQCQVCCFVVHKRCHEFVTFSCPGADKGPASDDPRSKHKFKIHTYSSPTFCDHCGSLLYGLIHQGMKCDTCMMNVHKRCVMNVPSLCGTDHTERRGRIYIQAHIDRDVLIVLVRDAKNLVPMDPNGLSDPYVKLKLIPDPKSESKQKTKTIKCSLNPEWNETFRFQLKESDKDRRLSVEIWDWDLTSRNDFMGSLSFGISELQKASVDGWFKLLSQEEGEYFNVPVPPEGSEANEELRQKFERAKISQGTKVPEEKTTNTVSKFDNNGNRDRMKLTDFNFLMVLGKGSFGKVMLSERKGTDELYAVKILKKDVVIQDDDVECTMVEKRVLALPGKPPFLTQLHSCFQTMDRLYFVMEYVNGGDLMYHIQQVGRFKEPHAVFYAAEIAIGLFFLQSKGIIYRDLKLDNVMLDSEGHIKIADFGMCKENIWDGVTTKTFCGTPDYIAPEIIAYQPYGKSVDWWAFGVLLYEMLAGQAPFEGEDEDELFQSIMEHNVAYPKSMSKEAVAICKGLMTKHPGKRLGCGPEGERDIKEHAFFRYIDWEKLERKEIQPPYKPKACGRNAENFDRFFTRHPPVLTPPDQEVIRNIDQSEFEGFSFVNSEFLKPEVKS

binding capacity (%) [1]	binding capacity (%) [2]	band intensity [3]	inhibition (%) [3]	relative intensity (%) [3]	binding capacity (%) [4]	binding capacity (%) [5]	binding capacity (%) [6]	Binder
0.08%	–	–	–	–	–	–	–	Ac-KDANQLIGISI-NH2 (Synthetic peptide; also called peptide PRE 6) [PRE 6]
–	13.3%	–	–	–	2.25%	13%	9.84%	Ac-RDAQNLIGISI-NH2 (Synthetic peptide; also called peptide PRE 11) [PRE 11]
–	6.59%	–	–	–	8.04%	14%	3.78%	Ac-ISIGILQNADK-NH2 (Synthetic peptide (retro form of PRE 4); also called peptide PRE 7) [PRE 7]
–	22.6%	0	100%	0%	34%	31.5%	31%	Ac-AKGIQEVKGGDAQNLIGISI-NH2 (Synthetic peptide; also called peptide PRE 3) [PRE 3]

More lines, now with the values behind:

Binder	binding capacity (%) [1]	binding capacity (%) [2]	band intensity [3]	inhibition (%) [3]	relative intensity (%) [3]	binding capacity (%) [4]	binding capacity (%) [5]	binding capacity (%) [6]
Ac-KDAQNLIGISI-NH2 (Synthetic peptide; also called peptide PRE 4) [PRE 4]	2.69%	22.8%	0	100%	0%	–	–	–
Ac-KDAQNLI-NH2 (Synthetic peptide; also called peptide PRE 12; Ac-KDAQNLI-NH2) [PRE 12]	–	0%	–	–	–	10.4%	0.28%	0%
Ac-RDAQNLI-NH2 (Synthetic peptide; also called peptide PRE 13; Ac-RDAQNLI-NH2) [PRE 13]	0%	–	–	–	–	0%	0%	0.85%

Source: patent US20100041597A1 (published 2010)
